Series [1] addresses FLAG-L4 (ribosomal protein L4) (Escherichia coli (expressed in BL21(DE3) rne131)) (UniProt P60723). Kind of series: competition. Conditions: EMSA: 30 C, 20 min, native 5% PAGE, ~2 ng RNA, 0.7-5.5 uM L4, buffer not given (cited method); footprinting: room temperature (25 C), RNase V1 in 1x RNA …. (In EMSA bound probe runs differently from free probe, usually more slowly.)
The subject of series [2] is FLAG-L4 (ribosomal protein L4) (Escherichia coli (expressed in BL21(DE3) rne131)). Put plainly: EMSA. Conditions: EMSA: 30 C, 20 min, native 5% PAGE, ~2 ng RNA, 0.7-5.5 uM L4, buffer not given (cited method); footprinting: room temperature (25 C), RNase V1 in 1x RNA ….

The Kd is the constant that tells how readily two partners part at equilibrium.

As for “GGGGGCUUGUCGUAGUUGACAGCAGGUUCAAUCUGAACCUCAGUUAGCCGAAUUUGGCUACCUAACAAUGCUCCCAAUCGGGGAGCUACGUAAGAACGGUUACACUCUCCCAUCAAUCGUAAUGGGUCUGAGGAGUAAUCAUUUUCGUUUAUAAAAUAAUUGGAGCUCUGGUCUC [S10-UTR RNA]”, in series [1], the binding result is given as “binds”.

In turn, “tnaC-tnaA transcribed spacer RNA (gel shift)” returned a Kd in series [2] of 2.1 µM.

For the substance “GGGGCUUAACGUCGCGUAAAUUGUUUAACACUUUGCGUAACGUACACUGGGAUCGCUGAAUUAGAGAUCGGCGUCCUUUCAUUCUAUAUACUUUGGAGUUUUAAAAUGUCUCUAAGUACUGAAGCAACAGCUAAAAUCGUUUCUGAG [rpsO-UTR RNA]”, in series [1], the binding result is listed as “no binding”.

For the origin of these results see PMC7186457.
